Experimental data taken from paper PMC4017622.
Where two headings read alike, the source gives them in different places.

B1: (dT)70 (ssDNA)
DNA: TTTTTTTTTTTTTTTTTTTTTTTTTTTTTTTTTTTTTTTTTTTTTTTTTTTTTTTTTTTTTTTTTTTTTT

What was measured:
[1] = molecular target: T1, Pf-SSB (wild type, lacks apicoplast localization signal) (Plasmodium falciparum 3D7, UniProt Q8I415 77-284); assay: Trp fluorescence quenching titration
Pf-SSB crystallized form = Pf-SSB crystallized form (Plasmodium falciparum 3D7, UniProt Q8I415 77-194); assay: X-ray crystallography
[2] = molecular target: T1, Pf-SSB (wild type, lacks apicoplast …); assay: Trp fluorescence quenching titration; remark: listed apart in the source

Row | Binder | binding result [1] | binding result (Pf-SSB crystallized form) | binding result [2]
1 | B1 | binds | – | –
2 | TTTTTTTTTTTTTTTTTTTTTTTTTTTTTTTTTTT (ssDNA) [(dT)35] | – | binds | binds
